# Data: patent publication US6534629B1, “Nematode-extracted serine protease inhibitors and anticoagulant proteins” (priority 1994, dated 2003)
# Where two headings read alike, the source gives them in different places. Marks after values point to notes of the source that are not given here.
# Legend:
# [1] = tested on: FeCl3-induced platelet-dependent arterial thrombosis; experiment: Rat model of FeCl3-induced platelet-dependent arterial thrombosis, intravenous administration; format: in vivo; conditions: dose that prevents complete thrombotic occlusion in 50% of animals
# Experimental: The antithrombotic (prevention of thrombus formation) properties of NAP were evaluated using the established experimental rat model of acute vascular thrombosis.
# The rat FeCl3 model is a well characterized model of platelet dependent, arterial thrombosis which has been used to evaluate potential antithrombotic compounds. Kurz, K. D., Main, B. W., and Sandusky, G. E., Thromb. Res., 60: 269-280 (1990). In this model a platelet-rich, occlusive thrombus is formed in a segment of the rat carotid artery treated locally with a fresh solution of FeCl3 absorbed to a piece of filter paper. The FeCl3 is thought to diffuse into the treated segment of artery and cause de-endothelialization of the affected vessel surface. […] The net result is occlusive thrombus formation. The effect of a test compound on the incidence of occlusive thrombus formation following application of FeCl3 is monitored by ultrasonic flowtometry and is used as the primary end point. […]
# Following surgery the animals were randomized in either a control (saline) or treatment (recombinant AcaNAP5) group. […] Blood pressure, blood flow, heart rate, and respiration were monitored for 60 minutes. The incidence of occlusion (defined as the attainment of zero blood flow) was recorded as the primary end point.
# [2] = tested on: normal citrated human plasma; experiment: Prothrombin time (PT) assay; format: biochemical; conditions: for coagulation time of human plasma (Prothrombin Time Assay), in words: P. pastoris culture supernatant / growth media; for Doubling Concentration (nM) in the PT: concentration that doubled the control clotting time (12.1 seconds) of normal human plasma
# Experimental: (§1) The ex vivo anticoagulant effects of NAPs of the present invention in human plasma were evaluated by measuring the prolongation of the activated partial thromboplastin time (aPTT) and prothrombin time (PT) over a broad concentration range of each inhibitor.
# (§2) Fresh frozen pooled normal citrated human plasma was obtained from George King Biomedical, Overland Park, Kans. Respective measurements of aPTT and PT were made using the Coag-A-Mate RA4 automated coagulometer (General Diagnostics, Organon Technica, Oklahoma City, Okla.) using the Automated aPTT Platelin® reagent (Organon Technica, Durham, N.C.) and Simplastin® Excel (Organon Technica, Durham, N.C.) respectively, as initiators of clotting according to the manufacturer's instructions.
# (§3) The assays were conducted by making a series of dilutions of each tested NAP in rapidly thawed plasma followed by adding 200 microliters or 100 microliters of the above referenced reagents to the wells of the assay carousel for the aPTT or PT measurements, respectively. Alternatively, the NAPs were serially diluted into HBSA and 10 μl of each dilution were added to 100 μl of normal human plasma in the wells of the Coag-A-Mate assay carousel, followed by addition of reagent.
# Concentrations of NAP were plotted against clotting time, and a doubling time concentration was calculated, i.e., a specified concentration of NAP that doubled the control clotting time of either the PT or the aPTT. The control clotting times (absence of NAP) in the PT and APTT were 12.1 seconds and 28.5 seconds, respectively.
# [3] = tested on: acute coronary artery thrombosis; experiment: Pig model of acute coronary artery thrombosis; format: in vivo; conditions: for Time of Occulsion: non-occluded vessels assigned 240 minutes
# Description: The protocol used in these studies is a modification of a thrombosis model which has been reported previously (Lucchesi, B. R., et al., (1994), Brit. J. Pharmacol. 113: 1333-1343).
# Animals were anesthetized and instrumented with arterial and venous catheters (left common carotid and external jugular, respectively). A thoracotomy was made in the 4th intercostal space and the heart was exposed. The left anterior descending (LAD) coronary artery was isolated from the overlying connective tissue and was instrumented with a Doppler flow probe and a 17 gauge ligature stenosis. An anodal electrode also was implanted inside the vessel.
# Baseline measurements were taken and the NAP or placebo to be tested was administered via the external jugular vein. Five minutes after administration, a direct current (300 μA, DC) was applied to the stimulating electrode to initiate intimal damage to the coronary endothelium and begin thrombus formation. Current continued for a period of 3 hours. Animals were observed until either 1 hour after the cessation of current or the death of the animal, whichever came first.
# The incidence of occlusion in the animals receiving placebo was 8/8 (100%). Time to occlusion in placebo treated animals was 66.6±7.5 min. (mean±sem).
# [4] = tested on: human rFVIIa/rTF/PLV complex; experiment: Factor VIIa/Tissue factor amidolytic assay; format: biochemical
# Experimental: Lyophilized, purified, recombinant human factor VIIa was obtained from BiosPacific, Inc. (Emeryville, Calif.), and reconstituted in HBS (10 mM HEPES, pH 7.5, 150 mM sodium chloride) prior to use. Purified human Factor X was obtained from Enzyme Research Laboratories, Inc. (South Bend, Ind.) and Factor Xa (free FXa) was activated and prepared from Factor X as described (Bock, P. E., Craig, P. A., Olson, S. T., and Singh, P. Arch. Biochem. Biophys. 273: 375-388 (1989)). Active site-blocked human Factor Xa (EGR-FXa), which had been irreversibly inactivated with L-Glutamyl-L-glycyl-L-arginyl chloromethylketone, was obtained from Haematologic Technologies, Inc. (Essex Junction, Vt.). Recombinant human tissue factor (rTF) was produced by a baculovirus-expression system, and purified to homogeneity by monoclonal antibody affinity chromatography (Corvas International, Inc., San Diego, Calif.).
# The purified rTF apoprotein was incorporated into phospholipid vesicles (rTF/PLV), consisting of phosphotidyl choline (75%, w/v) and phosphotidyl serine (25%, w/v) in the presence of detergent, as described by Ruf et al. (Ruf, W., Miles, D. J., Rehemtulla, A., and Edgington, T. S. Methods in Enzymology 222: 209-224 (1993)). The phospholipids were purchased from Avanti Polar Lipids, (Alabaster, Ala.). The buffer used for all assays was HBSA, HBS containing 0.1% (w/v) bovine serum albumin. All reagents were obtained from Sigma Chemical Cb. (St. Louis, Mo.), unless otherwise indicated.
# rFVIIa/rTF amidolytic activity was determined using the chromogenic substrate S-2288 (H-D-isoleucyl-L-prolyl-L-arginine-p-nitroaniline), obtained from Kabi Pharmacia Hepar, Inc. (Franklin, Ohio). The substrate was reconstituted in deionized water prior to use. rFVIIa and rTF/PLV were combined in a polypropylene test tube, and allowed to form a complex for 10 min in HBSA, containing 3 mM CaCl2. […] Following an incubation of 30 min at ambient temperature, the triplicate reactions were initiated by adding 50 μL of S-2288.
# The amidolytic activity of rFVIIa/rTF/PLV was measured as a linear increase in the absorbance at 405 nm over 10 min (velocity), using a Thermo Max® Kinetic Microplate Reader (Molecular Devices, Palo Alto, Calif.), under steady-state conditions, where less than 5% of the substrate was consumed. Ratios of inhibited pre-equilibrium, steady-state velocities (Vi), in the presence of NAP, to the uninhibited velocity in the presence of free fXa alone (Vo) were plotted against the corresponding concentrations of NAP.
# [5] = tested on: normal citrated human plasma; experiment: Activated partial thromboplastin time (aPTT) assay; format: biochemical; conditions: concentration that doubled the control clotting time (28.5 seconds) of normal human plasma
# Experimental: as §1, §2, §3
# Concentrations of NAP were plotted against clotting time, and a doubling time concentration was calculated, i.e., a specified concentration of NAP that doubled the control clotting time of either the PT or the aPTT.
# [6] = No FXa Addition, read-out: Ki* (pM) Amidolytic Assay, No FXa Addition
molecule,measurement,setting,value
"rTAP: recombinant Tick Anticoagulant Peptide, 60 amino acid factor Xa inhibitor from Ornithodoros moubata (YNRLCIKPRDWIDECDSNEGGERAYFRNGKGGCDSFWICPEDHTGADYYSSYRDCFNACI; UniProt P17726 1-60, looked up)",ED50,[1],0.6 mg/kg
CC1CNc2c(cccc2S(=O)(=O)N[C@@H](CCCNC(=N)N)C(=O)N2CC[C@@H](C)C[C@@H]2C(=O)O)C1 (some centres unmarked) [Argatroban],ED50,[1]; read-out: ED50,3.8 mg/kg
"AcaNAP42: NAP of Ancylostoma caninum, SEQ. ID. NO. 47; AcaNAP31, 42 and 46 encode identical proteins (protein) KSLWDQKCGENERLDCGNQKDCERKCDDKRSEEEIMQACLTRQCLPPVCVCEDGFYRNDNDQCVDEEECNMEFITFAP","coagulation time of human plasma (Prothrombin Time Assay), in words",[2],prolongation of the coagulation time of human plasma
AcaNAPc2P: AcaNAPc2 with an additional proline residue at the C-terminus (protein) KATMQCGENEKYDSCGSKECDKKCKYDGVEEEDDEEPNVPCLVRVCHQDCVCEEGFYRNKDDKCVSAEDCELDNMDFIYPGTRNP,Incidence of Occlusion,[3]; 0.01 mg/kg i.v.,6/6
same,Total Blood Loss,[3]; 0.01 mg/kg i.v.,1.6 ± 0.3 mL
same,Time of Occulsion,[3]; 0.01 mg/kg i.v.,105 ± 6.2 min
same,Incidence of Occlusion,[3]; 0.03 mg/kg i.v.,4/6
same,Total Blood Loss,[3]; 0.03 mg/kg i.v.,4.9 ± 1.4 mL
same,"bleeding, in words",[3]; 0.03 mg/kg i.v.,did not produce significant elevations in bleeding
same,"time to occlusion, in words",[3]; 0.03 mg/kg i.v.,significantly prolonged
same,Time of Occulsion,[3]; 0.03 mg/kg i.v.,159 ± 27 min
same,Incidence of Occlusion,[3]; 0.10 mg/kg i.v.,2/6†
same,Total Blood Loss,[3]; 0.10 mg/kg i.v.,17.6 ± 7.9 mL
same,Time of Occulsion,[3]; 0.10 mg/kg i.v.,215 ± 25 min
same,"coagulation time of human plasma (Prothrombin Time Assay), in words",[2],prolongation of the coagulation time of human plasma
same,"in vitro activity in inhibitory assays of rFVIIa/rTF activity, compared with AcaNAPc2",[4],substantially the same as AcaNAPc2
"AceNAP4: NAP of Ancylostoma ceylanicum with two NAP domains, SEQ. ID. NO. 62 (protein) KPNNVMTNACGLNEYFAECGNMKECEHRCNEEENEERDEERITACLIRVCFRPGACVCKDGFYRNRTGSCVEEDDCEYENMEFITFAPEVPICGSNERYSDCGNDKQCERKCNEDDYEKGDEACRSHVCERPGACVCEDGFYRNKKGSCVESDDCEYDNMDFITFAPETSR",Doubling Concentration (nM) in the PT,[2],40 ± 4 nM
same,Doubling Concentration (nM) in the aPTT,[5],115 ± 12 nM
"Pro-AcaNAP5: AcaNAP5 with four additional N-terminal amino acids, SEQ. ID. NO. 7, made in COS cells (protein) RTVRKAYPECGENEWLDDCGTQKPCEAKCNEEPPEEEDPICRSRGCLLPPACVCKDGFYRDTVIGDCVREEECDQHEIIHV",Doubling Concentration (nM) in the PT,[2],21.9 nM
same,Doubling Concentration (nM) in the aPTT,[5],31.0 nM
"AcaNAP6: NAP of Ancylostoma caninum, SEQ. ID. NO. 6; recombinant, made in Pichia pastoris (protein) KAYPECGENEWLDVCGTKKPCEAKCSEEEEEDPICRSFSCPGPAACVCEDGFYRDTVIGDCVKEEECDQHEIIHV",Doubling Concentration (nM) in the PT,[2],37 ± 3 nM
same,Ki,[4]; [6],> 1500 pM
same,Ki,"[4]; Plus EGR-FXa (2.5 nM), read-out: Ki* (pM) Amidolytic Assay, Plus EGR-FXa",> 1500 pM
same,Doubling Concentration (nM) in the aPTT,[5],62 ± 0 nM
"AcaNAPc2: NAP of Ancylostoma caninum isolated by phage display, SEQ. ID. NO. 59; fVIIa/TF inhibitor (protein) KATMQCGENEKYDSCGSKECDKKCKYDGVEEEDDEEPNVPCLVRVCHQDCVCEEGFYRNKDDKCVSAEDCELDNMDFIYPGTRN",Doubling Concentration (nM) in the PT,[2],15 ± 1 nM
same,Ki,[4]; [6],> 1500 pM
